{
  "source": "patent US20150010606A1",
  "about": "“INTRA-ARTICULAR INJECTION AND IMPLANT ATTACHMENT OF MOLECULE CONSISTING OF LUBRICIN AND EXTRACELLULAR SUPEROXIDE DISMUTASE OR HYALURONIC ACID AND EXTRACELLULAR SUPEROXIDE DISMUTASE” (Arthrex, Inc., priority 2013, published 2015)",
  "origin": "cited, not measured here",
  "key": {"[1]": {"test_system": "osteoarthritis", "details": "intra-articular injection; human clinical studies; compared to a placebo control"}, "[2]": {"test_system": "collagen-induced arthritis", "details": "mice with collagen-induced arthritis treated with SOD3"}},
  "data": [
    {"molecule": "SOD derived from bovine erythrocytes: superoxide dismutase derived from bovine erythrocytes, injected intra-articularly to treat osteoarthritis", "values": [
      {"measurement": "treatment of osteoarthritis", "setting": "[1]", "value": "significant success when compared to a placebo control"}
    ]},
    {"molecule": "Extracellular superoxide dismutase [Cu—Zn] (protein, UniProt P08294 19-240, looked up) Extracellular superoxide …: WTGEDSAEPNSDSAEWIRDMYAKVTEIWQEVMQRRDDDGALHAACQVQPSATLDAAQPRVTGVVLFRQLAPRAKLDAFFALEGFPTEPNSSSRAIHVHQFGDLSQGCESTGPHYNPLAVPHPQHPGDFGNFAVRDGSLWRYRAGLAASLAGPHSIVGRAVVVHAGEDDLGRGGNQASVENGNAGRRLACCVVGVCGPGLWERQAREHSERKKRRRESECKAA", "values": [
      {"measurement": "histology of the joint", "setting": "[2]", "value": "less destruction of cartilage and bone, less infiltration of mononuclear cells, and less proliferation of synovial cells"},
      {"measurement": "joint swelling and deformity", "setting": "[2]", "value": "suppression of joint swelling and deformity"}
    ]}
  ]
}
